Biological target: streptavidin (UniProt P22629)
Assay: recovery of cells on streptavidin coated magnetic beads (Dynal)

Sequence of streptavidin (P22629 37-163 limits assumed): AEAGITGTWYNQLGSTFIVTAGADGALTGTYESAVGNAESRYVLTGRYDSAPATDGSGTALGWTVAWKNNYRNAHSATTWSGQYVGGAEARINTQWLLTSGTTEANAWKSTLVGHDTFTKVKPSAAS

proportion of cells which bind to the beads: 0.02%
Substance: Ramos IgM (unselected / wild-type Ramos cells, surface and secreted IgM) (antibody)

Reference: patent US20080193979A1
